Literature values, collected in paper PMC7081292.
Read-outs that look alike come from different tables or passages of the source.

Assays:
His57 [1] = biological target: T1, His57 (UniProt position 57, VVTAAHCGVTT); test: NMR; details: zwitterionic tetrahedral adduct with a peptide-derived glyoxal inhibitor
His57 [2] = biological target: T1, His57; details: zwitterionic tetrahedral (hemiacetal) adduct with an aldehyde inhibitor

## Chymotrypsin (not stated (presumably Bos taurus))
His57 [1]
  pKa: >11
His57 [2]
  pKa: ∼ 8
